Experimental data: PMC6899989
Each block holds one substance with its values, some of them ahead of it.

What was measured:
[1] = target: N-terminal His6-tagged RpPpsR2 (gene repressor from Rhodopseudomonas palustris) (Rhodopseudomonas palustris); assay: SEC; RpPpsR2 in 5 mM DTT
[2] = target: RpBphP1, sample used for size exclusion chromatography (synthesised gene) (Rhodopseudomonas palustris); assay: SEC; Superose 12 10/300 GL, 200 μL at 1-4 mg/mL, 5 mM TrisHCl pH 8, 10 mM NaCl; after illumination with 760 nm light for 5 min (Pr state)
[3] = target: RpBphP1, sample used for size exclusion chromatography (synthesised gene) (Rhodopseudomonas palustris); assay: SEC; Superose 12 10/300 GL, 200 μL at 1-4 mg/mL, 5 mM TrisHCl pH 8, 10 mM NaCl; in the dark (Pfr state)
[4] = target: full-length RpBphP1, SAXS sample (gene PCR amplified from Rps. palustris strain 2.1.6, in pET28a) (Rhodopseudomonas palustris); assay: SAXS; 5 mM Tris pH 8, 1 and 4 mg/mL, 8 °C; dark-purified protein measured in darkness (Pfr state); mass by SAXS MoW2, ab-initio envelopes
[5] = target: full-length RpBphP1, SAXS sample (gene PCR amplified from Rps. palustris strain 2.1.6, in pET28a) (Rhodopseudomonas palustris); assay: SAXS; 5 mM Tris pH 8, 1 and 4 mg/mL, 8 °C; continuous illumination with 760 nm light (Pr state); mass by SAXS MoW2, ab-initio envelopes
[6] = target: N-terminal His6-tagged RpPpsR2 (gene repressor from Rhodopseudomonas palustris) (Rhodopseudomonas palustris); assay: pull-down; Ni(II)-affinity chromatography on 1 mL His-Trap HP; His6-RpPpsR2 mixed 1:4 with untagged RpBphP1 or RpBphP1ΔHOS; illuminated for 5 min with 760 nm light (Pr state); imidazole elution monitored at 280 and 400 nm; SDS/PAGE scan of peak BP

stoichiometry N [1]: 2
Substance: N-terminal His6-tagged RpPpsR2 (gene repressor from Rhodopseudomonas palustris) (natural protein)

stoichiometry N [2]: 2 | stoichiometry N [3]: 2
Substance: RpBphP1, sample used for size exclusion chromatography (synthesised gene) (natural protein)

stoichiometry N [4]: 2 | stoichiometry N [5]: 2
Substance: full-length RpBphP1, SAXS sample (gene PCR amplified from Rps. palustris strain 2.1.6, in pET28a) (natural protein)

stoichiometry N (RpBphP1 per RpPpsR2) [6]: 2
Substance: untagged full-length RpBphP1 (bacteriophytochrome from Rhodopseudomonas palustris) (natural protein)
